# In patent US11690918B2, “Pyrrolobenzodiazepine-anti-CD22 antibody conjugates” (ADC THERAPEUTICS S.A., priority 2012, dated 2023):
# B1: Epratuzumab-A: ADC targeted to CD22, generated by conjugating anti-CD22 antibody Epratuzumab to warhead-linker A (conjugate)
# VH: QVQLVQSGAEVKKPGSSVKVSCKASGYTFTSYWLHWVRQAPGQGLEWIGYINPRNDYTEYNQNFKDKATITADESTNTAYMELSSLRSEDTAFYFCARRDITTFYWGQG
# VL: DIQLTQSPSSLSASVGDRVTMSCKSSQSVLYSANHKNYLAWYQQKPGKAPKLLIYWASTRESGVPSRFSGSGSGTDFTFTISSLQPEDIATYYCHQYLSSWTFGQG
# Legend:
# [1] = test system: SU-DHL-1 cells; assay: In vitro cytotoxicity of ADCs, SU-DHL-1 (CD22 -ve control); assay type: cell-based; conditions: 4 days incubation, Alamar Blue
# Protocol: (§1) WSU-DLCL2 and SU-DHL-1 cells were from the Leibniz Institute DSMZ-German Collection of Microorganisms and Cell Cultures. Ramos and Daudi cells were from the American Type Culture Collection. Cell culture medium was RPMI 1640 supplemented with L-Glutamine and 10% FBS. Cells were grown at 37° C., 5% CO2, in a humidified incubator.
# (§2) The concentration and viability of cultures of suspended cells (at up to 1×10^6/ml) were determined by mixing 1:1 with Trypan blue and counting clear (live)/blue (dead) cells with a haemocytometer. The cell suspension was diluted to the required seeding density (generally 10^5/ml) and dispensed into 96-well flat bottomed plates. For Alamar blue assay, 100 μl/well was dispensed in black-well plates. […] After incubation for 4 days, cell viability was measured by either Alamar blue or MTS assay.
# (§3) AlamarBlue® (Invitrogen, catalogue number DAL1025) was dispensed (20 μl per well) into each well and incubated for 4 hours at 37° C. in the CO2-gassed incubator. Well fluorescence was measured at excitation 570 nm, emission 585 nm. Cell survival (%) was calculated from the ratio of mean fluorescence in the 4 ADC-treated wells compared to the mean fluorescence in the 4 control wells (100%).
# (§4) MTS (Promega, catalogue number G5421) was dispensed (20 μl per well) into each well and incubated for 4 hours at 37° C. in the CO2-gassed incubator. Absorbance was measured at 490 nm. […]
# [2] = test system: Daudi cells; assay: In vitro cytotoxicity of ADCs, Daudi; assay type: cell-based; conditions: FIG. 1, Alamar Blue
# Protocol: as §1, §2, §3, §4
# [3] = test system: Ramos cells; assay: In vitro cytotoxicity of ADCs, Ramos; assay type: cell-based, human; conditions: FIG. 1, Alamar Blue
# Protocol: as §1, §2, §3, §4
# [4] = test system: WSU-DLCL2 cells; assay: In vitro cytotoxicity of ADCs, WSU-DLCL2; assay type: cell-based; conditions: FIG. 1, Alamar Blue
# Protocol: as §1, §2, §3, §4
# [5] = test system: Ramos xenograft; assay: In vivo anti-tumour activity, Ramos mouse xenograft model; conditions: NCr nu/nu mice, single dose 1.0 mg/kg IV, FIG. 3
# Protocol: The CD22+(ve) human Burkitt's lymphoma-derived cell line Ramos was used in a mouse xenograft model to test the in vivo efficacy of the Epratuzumab-A ADC. As a non-CD22-binding control, the anti-HIV gp120 antibody, B12, linked to A was used in the same model.
# Procedures: • Set up CR female NCr nu/nu mice with l× Ramos-SPN tumor cells in 0% Matrigel sc in flank. • Cell Injection Volume is 0.1 mL/mouse. • Age at Start Date: 8 to 12 weeks. • Perform a pair match when tumors reach an average size of 100-150 mm^3 and begin treatment. • Body Weight: qd×5 then bi-wk to end • Caliper Measurement: bi-wk to end • Report any adverse reactions or death immediately. • Any individual animal with a single observation of >30% body weight loss or three consecutive measurements of >25% body weight loss will be euthanized. • Any group with two measurements of mean body weight loss of >20% or >10% mortality will stop dosing. The group is not euthanized and recovery is allowed. Within a group with >20% weight loss, individuals hitting the individual body weight loss endpoint will be euthanized. […] Animals are to be monitored individually. […]
# For the calculation of group mean tumor volumes the following rule was applied: when an animal exited the study due to tumor size, the final tumor volume recorded for the animal was included with the data used to calculate the mean volume at subsequent time points. […]
molecule,measurement,setting,value
B1,EC50 SUDHL1,[1],~6.776 µg/mL
same,cytotoxicity against Daudi cells,[2],significant cytotoxicity
same,cytotoxicity against Ramos cells,[3],significant cytotoxicity
same,cytotoxicity against WSU-DLCL2 cells,[4],significant cytotoxicity
same,anti-tumor activity (mean tumour volume),[5],most potent anti-tumor activity
